Experimental data as given in patent publication US20190119389A1 (POTENZA THERAPEUTICS, published 2019).
Substitutions are numbered along the chain they refer to. Names may count otherwise.

B1: MAB2 IgG4 S228P (antibody, V domains shown)
VH: QVQLVQSGAEVKKPGASVKVSCKASGYTFRSYYMLWVRQAPGQGLEWMGIIDPSDGSTSYAQKFQGRVTMTRDASTSTVYMELSSLRSEDTAVYYCARGARRITGYGMDVWGQGTTVIVSS
VL: DIQMTQSPSSVSASVGDRVTITCRASQGISSWLAWYQQKPGKAPKLLIYAASNLQSGVPSRFSGSGSGTDFTLTISSLQPEDFATYYCQQASVFPFTFGGGTKVEIKR
B2: MAB3 IgG4 S228P (antibody, V domains shown)
VH: QAQLVQSGAEVKKPGASVKVSCKASGYTFSRYYMHWVRQAPGQGLEWMGIINPLGGSTLYAQKFQGRVTMTRDTSTSTVYMELSSLRSEDTAVYYCARDLGYYGSGMHAWGQGTLVTVSS
VL: B1 VL with S31R, N53S, S92N, V93L, F94L
B3: MAB4 IgG4 S228P (antibody, V domains shown)
VH: B2 VH with A2V, A109V
VL: B1 VL with S31R, N53S, S92N, V93L, F94L
B4: MAB10 (antibody, V domains shown)
VH: EVQLLESGGGLVQPGGSLRLSCAASGFTFSSVAMVWVRQAPGKGLEWVSAISGSGGATYYADSVKGRFTISRDNSKNTLYLQMNSLRAEDTAVYYCAKDPGYDSSRYYYSNYGMDVWGQGTTVTVSS
VL: DIQMTQSPSSLSASVGDRVTITCRASQSISSYLNWYQQKPGKAPKLLIYGASSLQSGVPSRFSGSGSGTDFTLTISSLQPEDFATYYCQQTYSLYTFGGGTKVEIK
B5: MAB8 (antibody, V domains shown)
VH: B4 VH with S30A, V32Y, A50I, A57S
VL: B4 VL
B6: MAB9 (antibody, V domains shown)
VH: B4 VH with S30K, V32Y, A50I
VL: B4 VL
B7: MAB11 (antibody, V domains shown)
VH: B4 VH with K65E, N84S
VL: B4 VL
B8: MAB6 (antibody, V domains shown)
VH: QVQLVQSGAKVKKPGASVKVSCKASGYTFTSYYMHWVRQVPGQGLEWMGIINPQGGDTSYAQKFQGRVTMTRDTSTSTVYMELSSLRSEDTAVYYCARDRGMYYASGFNPWGQGTLVTVSS
VL: EIVMTQSPGTLSLSPGERATLSCRASQSVSSSYLAWYQQKPGQAPRLLIYGASNRATGIPDRFSGSGSGTDFTLTISRLEPEDFAVYYCQQLSSFPITFGGGTKVEIK
B9: MAB7 (antibody, V domains shown)
VH: EVQLVESGGGLVQPGGSLRLSCAASGFTFSSYWMEWVRQAPGKGLEWVARIKRDGSEKYYVDSVKGRFTISRDNAKNSLYLQMNSLRAEDTAVYYCARDQGYKTPTDFDLWGRGTLVTVSS
VL: DIQMTQSPSSLSASVGDRVTITCQASQDITNYLNWYQQKPGKAPKLLIYDASNLETGVPSRFSGSGSGTDFTFTISSLQPEDIATYYCQQSDVLPITFGGGTKVEIK

Each binder was assayed against T1, recombinant human NRP-1 (human, UniProt O14786 22-856, limits assumed) (assay: blocking ELISA, average of n=2: SEMA3A coated, biotinylated human NRP-1 preincubated with IgG4 antibody; competitor SEMA3A).
T1 construct: also called biotinylated human NRP-1
T1 sequence (O14786 22-856 V179A limits assumed): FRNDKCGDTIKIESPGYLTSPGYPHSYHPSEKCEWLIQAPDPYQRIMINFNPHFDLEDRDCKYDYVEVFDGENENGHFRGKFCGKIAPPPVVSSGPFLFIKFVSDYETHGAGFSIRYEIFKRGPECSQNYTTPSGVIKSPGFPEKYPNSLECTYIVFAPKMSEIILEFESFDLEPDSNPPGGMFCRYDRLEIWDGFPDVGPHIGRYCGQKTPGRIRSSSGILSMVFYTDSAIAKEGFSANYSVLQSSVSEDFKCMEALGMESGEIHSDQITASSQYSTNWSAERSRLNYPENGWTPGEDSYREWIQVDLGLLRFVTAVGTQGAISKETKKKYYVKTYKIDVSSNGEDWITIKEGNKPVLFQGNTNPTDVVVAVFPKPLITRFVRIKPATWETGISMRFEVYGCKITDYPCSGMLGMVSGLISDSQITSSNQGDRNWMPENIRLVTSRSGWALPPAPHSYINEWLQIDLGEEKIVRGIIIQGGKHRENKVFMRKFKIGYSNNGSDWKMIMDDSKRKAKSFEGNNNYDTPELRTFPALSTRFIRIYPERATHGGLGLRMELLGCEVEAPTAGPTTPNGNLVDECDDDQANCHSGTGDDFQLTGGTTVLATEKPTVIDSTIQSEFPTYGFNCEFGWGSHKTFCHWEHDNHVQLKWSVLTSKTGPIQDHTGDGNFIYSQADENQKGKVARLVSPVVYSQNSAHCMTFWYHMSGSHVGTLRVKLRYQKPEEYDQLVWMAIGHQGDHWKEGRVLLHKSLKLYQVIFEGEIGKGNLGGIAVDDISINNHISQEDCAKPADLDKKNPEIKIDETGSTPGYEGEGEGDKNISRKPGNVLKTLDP

| Binder | IC50 [nM] |
| --- | --- |
| B1 | 2.6 |
| B2 | 2 |
| B3 | 2.3 |

Each binder was assayed against T2, Mouse NRP-1 His (mouse, UniProt P97333 22-856) (assay: BLI Octet QKe, IgG4 S228P on AHC sensor, multi-concentration monomeric antigen, global 1:1 fit).
T2 construct: Recombinant monomeric protein; also called mNRP-1; not shown: His tag
T2 sequence (P97333 22-856 limits assumed): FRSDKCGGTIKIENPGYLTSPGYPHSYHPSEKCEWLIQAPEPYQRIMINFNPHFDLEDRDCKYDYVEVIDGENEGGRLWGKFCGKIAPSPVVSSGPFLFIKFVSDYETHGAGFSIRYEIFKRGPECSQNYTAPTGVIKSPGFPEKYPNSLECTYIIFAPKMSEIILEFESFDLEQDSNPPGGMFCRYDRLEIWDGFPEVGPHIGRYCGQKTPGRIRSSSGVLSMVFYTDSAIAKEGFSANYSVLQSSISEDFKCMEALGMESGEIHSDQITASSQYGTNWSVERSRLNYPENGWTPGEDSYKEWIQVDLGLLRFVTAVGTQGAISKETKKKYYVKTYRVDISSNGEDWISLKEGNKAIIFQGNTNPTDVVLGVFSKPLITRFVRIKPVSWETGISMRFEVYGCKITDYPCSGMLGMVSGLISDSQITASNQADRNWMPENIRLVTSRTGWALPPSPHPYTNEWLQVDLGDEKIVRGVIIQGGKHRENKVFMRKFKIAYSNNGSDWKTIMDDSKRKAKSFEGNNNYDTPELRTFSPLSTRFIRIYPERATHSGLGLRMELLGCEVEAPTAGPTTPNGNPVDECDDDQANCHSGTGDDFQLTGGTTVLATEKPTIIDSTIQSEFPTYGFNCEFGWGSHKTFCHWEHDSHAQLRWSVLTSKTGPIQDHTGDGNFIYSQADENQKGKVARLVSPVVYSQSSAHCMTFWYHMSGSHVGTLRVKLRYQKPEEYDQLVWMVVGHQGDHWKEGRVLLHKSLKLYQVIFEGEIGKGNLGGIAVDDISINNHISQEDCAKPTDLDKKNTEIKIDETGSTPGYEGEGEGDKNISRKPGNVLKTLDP

| Binder | Kd [nM] |
| --- | --- |
| B1 | 5.1 |
| B2 | 4.4 |
| B3 | 2.3 |

Each binder was assayed against T3, Human NRP-1 His (human, UniProt O14786 22-856) in the same assay as above.
T3 construct: Recombinant monomeric protein; Biotinylated in the MSD-SET assay; also called hNRP-1; not shown: His tag
T3 sequence (O14786 22-856 V179A limits assumed): as the sequence (O14786 22-856 V179A limits assumed) above

| Binder | Kd [nM] |
| --- | --- |
| B1 | 2.4 |
| B2 | 3.7 |
| B3 | 3.1 |

Target: T4, Cyno NRP-1 His (cynomolgus monkey, UniProt O14786 22-856 (human entry), limits assumed)
T4 construct: Recombinant monomeric protein; also called cynomolgus monkey NRP-1-His; cNRP-1; not shown: His tag
T4 chain: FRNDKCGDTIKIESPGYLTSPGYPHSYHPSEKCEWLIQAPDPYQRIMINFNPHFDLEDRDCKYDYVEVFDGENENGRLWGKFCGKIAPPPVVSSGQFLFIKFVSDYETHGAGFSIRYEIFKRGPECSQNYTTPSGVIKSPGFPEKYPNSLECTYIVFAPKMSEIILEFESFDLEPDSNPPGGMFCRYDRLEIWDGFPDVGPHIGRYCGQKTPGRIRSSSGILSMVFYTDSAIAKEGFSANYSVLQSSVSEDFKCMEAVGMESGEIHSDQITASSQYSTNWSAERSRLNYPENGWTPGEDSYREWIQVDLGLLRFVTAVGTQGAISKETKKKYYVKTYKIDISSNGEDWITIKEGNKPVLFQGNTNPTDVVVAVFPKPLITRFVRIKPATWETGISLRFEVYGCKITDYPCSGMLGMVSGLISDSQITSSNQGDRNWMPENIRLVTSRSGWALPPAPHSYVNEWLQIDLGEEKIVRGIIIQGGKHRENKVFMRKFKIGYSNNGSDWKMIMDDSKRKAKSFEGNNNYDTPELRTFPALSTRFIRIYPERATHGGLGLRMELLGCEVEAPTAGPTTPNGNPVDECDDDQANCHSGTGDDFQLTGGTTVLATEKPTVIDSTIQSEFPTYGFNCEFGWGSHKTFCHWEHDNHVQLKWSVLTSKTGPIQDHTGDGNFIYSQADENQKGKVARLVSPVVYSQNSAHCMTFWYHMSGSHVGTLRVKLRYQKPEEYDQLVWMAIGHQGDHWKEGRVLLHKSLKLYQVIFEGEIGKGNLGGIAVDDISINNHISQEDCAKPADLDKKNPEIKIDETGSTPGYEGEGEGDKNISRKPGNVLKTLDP
Assay: as above

| Binder | Kd [nM] |
| --- | --- |
| B1 | 4.5 |
| B2 | 7.3 |
| B3 | 4.5 |

Each binder was assayed against T1, recombinant human NRP-1 (assay: blocking ELISA: SEMA3A coated, biotinylated human NRP-1 preincubated with IgG1 antibody; competitor SEMA3A).

| Binder | IC50 [nM] |
| --- | --- |
| B4 | 1.5 |
| B5 | 2 |
| B6 | 1.8 |
| B7 | 0.8 |
| B8 | 1.8 |
| B9 | 1.7 |

What follows are binders tested against T2, Mouse NRP-1 His (assay: BLI ForteBio, IgG1 N297A on AHQ sensor, 100 nM monomeric antigen, 1:1 fit).

| Binder | Kd [nM] |
| --- | --- |
| B4 | 0.746 |
| B5 | 0.552 |
| B6 | 0.566 |
| B7 | 0.446 |
| B8 | 6.98 |
| B9 | 14.7 |

The binders below were run against T3, Human NRP-1 His in the same assay as above.

| Binder | Kd [nM] |
| --- | --- |
| B4 | 0.868 |
| B5 | 0.613 |
| B6 | 0.645 |
| B7 | 0.485 |
| B8 | 4.72 |
| B9 | 11.2 |

Target: T4, Cyno NRP-1 His
Assay: as above

| Binder | Kd [nM] |
| --- | --- |
| B4 | 0.866 |
| B5 | 0.642 |
| B6 | 0.643 |
| B7 | 0.48 |
| B8 | 5.54 |
| B9 | 10.9 |

The binders below were run against T1, recombinant human NRP-1 (assay: blocking ELISA: human NRP-1 coated, VEGFA added with IgG1 antibody; competitor VEGFA).

| Binder | IC50 [nM] |
| --- | --- |
| B4 | 6.7 |
| B5 | 7.3 |
| B6 | 6.5 |
| B7 | 5.9 |
| B8 | 7.4 |
| B9 | 6.9 |
